Molecular target: tripartite motif containing 28 (TRIM28) (human (endogenous in HeLa)) (UniProt Q13263)
Sequence (Q13263 whole entry): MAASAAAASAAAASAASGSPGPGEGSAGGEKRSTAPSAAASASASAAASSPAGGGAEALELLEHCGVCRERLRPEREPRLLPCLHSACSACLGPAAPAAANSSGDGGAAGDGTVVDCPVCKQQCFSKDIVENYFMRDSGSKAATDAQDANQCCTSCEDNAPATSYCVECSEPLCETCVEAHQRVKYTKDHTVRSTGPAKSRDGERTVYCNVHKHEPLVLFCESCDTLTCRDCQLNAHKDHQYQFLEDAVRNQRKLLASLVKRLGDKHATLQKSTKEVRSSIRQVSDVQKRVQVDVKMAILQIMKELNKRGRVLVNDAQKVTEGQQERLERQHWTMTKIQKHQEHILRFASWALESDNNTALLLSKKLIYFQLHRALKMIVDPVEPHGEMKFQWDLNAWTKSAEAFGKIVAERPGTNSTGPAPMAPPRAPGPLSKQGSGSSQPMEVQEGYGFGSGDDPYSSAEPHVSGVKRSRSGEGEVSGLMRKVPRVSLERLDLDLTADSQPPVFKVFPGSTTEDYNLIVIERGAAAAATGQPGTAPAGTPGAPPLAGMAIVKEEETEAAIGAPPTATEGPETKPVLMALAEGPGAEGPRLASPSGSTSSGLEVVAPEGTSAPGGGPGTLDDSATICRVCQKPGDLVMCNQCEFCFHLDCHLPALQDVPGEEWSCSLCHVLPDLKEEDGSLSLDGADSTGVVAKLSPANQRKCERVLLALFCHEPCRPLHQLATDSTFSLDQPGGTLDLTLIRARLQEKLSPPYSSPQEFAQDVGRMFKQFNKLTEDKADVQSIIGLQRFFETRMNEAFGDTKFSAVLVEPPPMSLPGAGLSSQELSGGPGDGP

transcriptional repression factor over Gal4-DBD alone, dual luciferase reporter assay in HeLa cells (KRAB domain as Gal4-DBD fusion): 0.9 fold
Substance: GST fusion of wild-type PRDM9 aKRAB-A with ZNF10-B (domain or fragment)

— publication PMC8835667
